Reference: patent publication US20120277164A1 (IMPERIAL INNOVATIONS, published 2012)
Square brackets hold non-standard residues; d marks the D form. Ends that are not written are not given here. * marks the point of attachment. Fmoc = O=C(OCC1c2ccccc2-c2ccccc21)*; Cha = N[C@@H](CC1CCCCC1)C(=O)O; ClZ = O=C(OCc1ccccc1Cl)*; Cbz = O=C(OCc1ccccc1)*; Bz = O=C(c1ccccc1)*; Myr = myristyl

T1: Gadd45β/MKK7 complex (biotin-hGadd45β with coated GST-MKK7, ELISA format) (human, UniProt O75293 1-160; O14733 1-419, biotinylated (sites not given))
T1 construct: not shown: glutathione S-transferase (GST) fusion partner
T1 sequence (looked up) 1: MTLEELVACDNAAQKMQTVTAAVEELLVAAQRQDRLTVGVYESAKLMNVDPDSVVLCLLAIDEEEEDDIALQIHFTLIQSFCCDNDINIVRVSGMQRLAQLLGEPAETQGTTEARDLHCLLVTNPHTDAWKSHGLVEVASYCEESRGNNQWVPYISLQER
T1 sequence (looked up) 2: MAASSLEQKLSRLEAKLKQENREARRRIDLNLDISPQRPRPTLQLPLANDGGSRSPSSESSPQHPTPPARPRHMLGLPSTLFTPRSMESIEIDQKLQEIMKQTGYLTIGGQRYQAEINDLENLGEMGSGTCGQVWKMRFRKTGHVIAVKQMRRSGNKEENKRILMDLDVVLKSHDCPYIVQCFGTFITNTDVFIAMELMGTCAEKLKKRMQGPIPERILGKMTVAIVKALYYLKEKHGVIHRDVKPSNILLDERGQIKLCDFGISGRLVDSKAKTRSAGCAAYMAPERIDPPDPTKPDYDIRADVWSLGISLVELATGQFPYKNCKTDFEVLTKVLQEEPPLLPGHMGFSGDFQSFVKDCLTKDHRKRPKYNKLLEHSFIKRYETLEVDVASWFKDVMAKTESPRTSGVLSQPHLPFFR

T2: Gadd45β/MKK7 complex (biotin-hGadd45β with coated GST-MKK7, ELISA format) (human) (UniProt O75293)
T2 sequence (biotinylated (sites not stated), looked up) 1: T1 sequence (looked up) 1
T2 sequence (biotinylated (sites not stated), looked up) 2: T1 sequence (looked up) 2

B1: Ac-WDHF-NH2 (peptide)
peptide: Ac-WDHF-NH2
B2: Ac-WEKW-NH2 (peptide)
peptide: Ac-WEKW-NH2
B3: Ac-WEHF-NH2 (peptide)
peptide: Ac-WEHF-NH2
B4: Ac-YEKF-NH2 (peptide)
peptide: Ac-YEKF-NH2
B5: Ac-WDRF-NH2 (peptide)
peptide: Ac-WDRF-NH2
B6: Ac-WEKF-NH2 (peptide)
peptide: Ac-WEKF-NH2
B7: Ac-YDKF-NH2 (peptide)
peptide: Ac-YDKF-NH2
B8: Ac-WDKF-NH2 (peptide)
peptide: Ac-WDKF-NH2
B9: Ac-YDRW-NH2 (peptide)
peptide: Ac-YDRW-NH2
B10: Ac-WDHW-NH2 (peptide)
peptide: Ac-WDHW-NH2
B11: Ac-WDRW-NH2 (peptide)
peptide: Ac-WDRW-NH2
B12: Ac-WDKW-NH2 (peptide)
peptide: Ac-WDKW-NH2
B13: Ac-WEHW-NH2 (peptide)
peptide: Ac-WEHW-NH2
B14: Ac-YEHW-NH2 (peptide)
peptide: Ac-YEHW-NH2
B15: Ac-YDHW-NH2 (peptide)
peptide: Ac-YDHW-NH2
B16: Ac-WERF-NH2 (peptide)
peptide: Ac-WERF-NH2
B17: Ac-YDKW-NH2 (peptide)
peptide: Ac-YDKW-NH2
B18: Ac-WERW-NH2 (peptide)
peptide: Ac-WERW-NH2
B19: Ac-YERW-NH2 (peptide)
peptide: Ac-YERW-NH2
B20: Ac-YEKW-NH2 (peptide)
peptide: Ac-YEKW-NH2
B21: Ac-YDRF-NH2 (peptide)
peptide: Ac-YDRF-NH2
B22: Ac-Tyr-Leu-Arg-Phe-NH2 (peptide)
peptide: Ac-[dY][dL][dR][dF]-NH2
modifications: also: D/L configuration not given here
B23: Ac-Tyr-Tyr-Arg-Phe-NH2 (peptide)
peptide: Ac-[dY][dY][dR][dF]-NH2
modifications: also: D/L configuration not given here
B24: Ac-Tyr-Asn-Arg-Phe-NH2 (peptide)
peptide: Ac-[dY][dN][dR][dF]-NH2
modifications: also: D/L configuration not given here
B25: Z-Tyr-Tyr-Glu-Arg-Phe-NH2 (peptide)
peptide: Cbz-[dY][dY][dE][dR][dF]-NH2
B26: Z-Tyr-Tyr-Asp-His Gln-NH2 (peptide)
peptide: Cbz-[dY][dY][dD][dH][dQ]-NH2
B27: Ac-Tyr-Met-Arg-Phe-NH2 (peptide)
peptide: Ac-[dY][dM][dR][dF]-NH2
modifications: also: D/L configuration not given here
B28: Ac-Tyr-Gln-Arg-Phe-NH2 (peptide)
peptide: Ac-[dY][dQ][dR][dF]-NH2
modifications: also: D/L configuration not given here
B29: Z-Tyr-Asp-His-Gln-NH2 (peptide)
peptide: Cbz-[dY][dD][dH][dQ]-NH2
B30: Benzoic acid-YDHF-NH2 (peptide)
peptide: Bz-YDHF-NH2
B31: 2CI-Z-YDHQ-NH2 (peptide)
peptide: ClZ-YDHQ-NH2
B32: 2CI-Z-YERF-NH2 (peptide)
peptide: ClZ-YERF-NH2
B33: Ac-PERF-NH2 (peptide)
peptide: Ac-PERF-NH2
B34: Benzoic acid-YERF-NH2 (peptide)
peptide: Bz-YERF-NH2
B35: Z-YERF-NH2 (peptide)
peptide: Cbz-YERF-NH2
notes: also called Z-LTP2
B36: Myr-YERF-NH2 (peptide)
peptide: Myr-YERF-NH2
B37: Ac-YERP-NH2 (peptide)
peptide: Ac-YERP-NH2
B38: Myr-YDHQ-NH2 (peptide)
peptide: Myr-YDHQ-NH2
B39: Fmoc-YERF-NH2 (peptide)
peptide: Fmoc-YERF-NH2
B40: Ac-YEAF-NH2 (peptide)
peptide: Ac-YEAF-NH2
B41: Ac-YEPF-NH2 (peptide)
peptide: Ac-YEPF-NH2
B42: Z-YDHQ-NH2 (peptide)
peptide: Cbz-YDHQ-NH2
B43: Ac-YARF-NH2 (peptide)
peptide: Ac-YARF-NH2
B44: 3-OH-4MeO-Benzoid acid-YERF-NH2 (peptide)
peptide: {3‑OH‑4MeO‑benzoic acid}-YERF-NH2
B45: Ac-YERA-NH2 (peptide)
peptide: Ac-YERA-NH2
B46: Ac-YPRF-NH2 (peptide)
peptide: Ac-YPRF-NH2
B47: Fmoc-YDHF-NH2 (peptide)
peptide: Fmoc-YDHF-NH2
B48: 3-OH-4MeO-Benzoid acid-YDHF-NH2 (peptide)
peptide: {3‑hydroxy‑4‑methoxybenzoyl}-YDHF-NH2
B49: Z-YDHF-NH2 (peptide)
peptide: Cbz-YDHF-NH2
notes: also called Z-LTP1
B50: 2CI-Z-YDHF-NH2 (peptide)
peptide: ClZ-YDHF-NH2
B51: Myr-YDHF-NH2 (peptide)
peptide: Myr-YDHF-NH2
B52: Z-YD(OMe)HF-NH2 (peptide)
peptide: Cbz-YD(OMe)HF-NH2

Target: T1, Gadd45β/MKK7 complex (biotin-hGadd45β …)
Assay: competition ELISA; coated GST-MKK7, biotin-hGadd45β; single dose

| % Inhibition of Gadd45β-MKK7 binding [%] | Molecule |
| --- | --- |
| 28 | B1 |
| 65 | B2 |
| 36 | B3 |
| 64 | B4 |
| 46 | B5 |
| 65 | B6 |
| 35 | B7 |
| 26 | B8 |
| 43 | B9 |
| 50 | B10 |
| 93 | B11 |
| 69 | B12 |
| 75 | B13 |
| 64 | B14 |
| 58 | B15 |
| 29 | B16 |
| 23 | B17 |
| 69 | B18 |
| 59 | B19 |
| 27 | B20 |
| 45 | B21 |

Target: T2, Gadd45β/MKK7 complex (biotin-hGadd45β with coated GST-MKK7, ELISA format) (human)
Assay: competition ELISA; coated GST-MKK7 42 nM, biotin-hGadd45β 21 nM

| IC50 [nM] | Molecule |
| --- | --- |
| > 10 | AC-Tyr-Met-Phe-NH2 (peptide) |
| 1.9 | Ac-Tyr-Asn-Phe-NH2 (peptide) |
| > 5 | Ac-Tyr-Arg-[Cha] |
| 0.645 | H-YHF-NH2 (peptide) |
| 0.758 | Ac-YRY-NH2 (peptide) |
| > 10 | Ac-Tyr-Gln-Phe-NH2 (peptide) |
| 0.69 | Ac-YHF-NH2 (peptide) |
| 0.162 | Cbz-Tyr-Asp-Phe-NH2 |
| > 5 | Ac-[Cha]-Arg-Phe-NH2 |
| 1.8 | Ac-Tyr-Leu-Phe-NH2 (peptide) |
| 0.645 | Ac-YPF-NH2 (peptide) |
| 0.158 | Z-Tyr-Glu-Phe-NH2 (mDTP2) (peptide) |
| 0.1 | Cbz-Tyr-Arg-Phe-NH2 |
| 0.75 | H-YRY-NH2 (peptide) |
| 5 | B22 |
| > 5 | B23 |
| 10 | B24 |
| > 5 | B25 |
| > 10 | B26 |
| > 10 | B27 |
| 5 | B28 |
| > 10 | B29 |

Target: T1, Gadd45β/MKK7 complex (biotin-hGadd45β …)
Assay: competition ELISA; coated GST-MKK7, biotin-hGadd45β; single dose
Remark: another data set of the same source

| % Inhibition of Gadd45β-MKK7 binding [%] | Molecule |
| --- | --- |
| 0 | B30 |
| 40 | B31 |
| 38 | B32 |
| 24 | B33 |
| 24 | B34 |
| 78 | B35 |
| 37 | B36 |
| 0 | B37 |
| 28 | B38 |
| 60 | B39 |
| 13 | B40 |
| 13 | B41 |
| 13 | B42 |
| 17 | B43 |
| 86 | B44 |
| 28 | B45 |
| 13 | B46 |
| 19 | B21 |
| 58 | B47 |
| 81 | B48 |
| 84 | B49 |
| 38 | B50 |
| 26 | B51 |
| 84 | B52 |
